Experimental findings from paper doi:10.1101/2020.10.21.349639 (bioRxiv, 2020) are described below.

By Kd is commonly meant the constant that tells how readily two partners part at equilibrium.

This assay addresses T1, NorC (wild type) (Staphylococcus aureus subsp. aureus COL …).
T1 chain: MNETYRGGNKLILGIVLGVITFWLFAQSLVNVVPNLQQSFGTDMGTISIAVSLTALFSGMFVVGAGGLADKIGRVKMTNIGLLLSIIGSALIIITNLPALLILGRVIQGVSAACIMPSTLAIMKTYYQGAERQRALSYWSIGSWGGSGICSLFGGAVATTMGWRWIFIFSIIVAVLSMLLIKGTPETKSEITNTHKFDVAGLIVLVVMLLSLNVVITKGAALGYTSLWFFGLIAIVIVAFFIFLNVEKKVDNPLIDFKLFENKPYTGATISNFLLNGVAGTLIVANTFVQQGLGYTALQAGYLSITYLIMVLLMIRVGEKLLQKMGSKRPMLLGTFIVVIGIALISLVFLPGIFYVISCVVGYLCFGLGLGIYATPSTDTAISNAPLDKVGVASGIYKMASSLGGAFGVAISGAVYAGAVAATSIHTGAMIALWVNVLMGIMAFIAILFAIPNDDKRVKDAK
Nature of the assay: ITC. On the technique in general: Isothermal titration calorimetry measures the heat released or taken up as one component is titrated into another.

B1: single-domain Indian camelid antibody (ICab), Zn2+-bound (VHH)
VHH: QVQLEESGGGSVQAGGSLRLSCAASGYMYSTYSTYCMGWFRQAPGKEREGVAFIKRGDHSTYYTDSVKGRFTISQDSAKNTVSLQMNNLKPEDTAIYYCAADFAHSFLLSVHSGAGQYSYWGQGTQVTVSS
In turn, B1 gave a Kd of 38 ± 5 nM.
